Here are results for two molecules from PMC7497807 (Blood cancer discovery, 2020).

Broadly, the Kd is the free concentration of one partner at which half of the binding sites on the other are occupied at equilibrium, for simple one-to-one binding. Read a low Kd as tighter binding. As a reminder, the IC50 is the concentration needed to halve the response being measured. High values mean lower potency, low ones higher potency.

Test in all cases: fluorescence polarisation
The target in one test is T1, BCOR (aa 1176–1225)-FITC (UniProt Q6W2J9 1176-1225, fluorescein (printed as BCOR (aa 1176–1225)-FITC)).
T1 peptide (looked up): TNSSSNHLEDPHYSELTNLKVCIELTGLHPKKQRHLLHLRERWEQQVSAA

Test [1] deals with fluorescein-labeled CBX8 peptide (FITC-CBX8) (fluorescein (printed as FITC-CBX8)).
For the next test, the target named is MBP-AF9.
Chain of MBP-AF9 (P42568 whole entry): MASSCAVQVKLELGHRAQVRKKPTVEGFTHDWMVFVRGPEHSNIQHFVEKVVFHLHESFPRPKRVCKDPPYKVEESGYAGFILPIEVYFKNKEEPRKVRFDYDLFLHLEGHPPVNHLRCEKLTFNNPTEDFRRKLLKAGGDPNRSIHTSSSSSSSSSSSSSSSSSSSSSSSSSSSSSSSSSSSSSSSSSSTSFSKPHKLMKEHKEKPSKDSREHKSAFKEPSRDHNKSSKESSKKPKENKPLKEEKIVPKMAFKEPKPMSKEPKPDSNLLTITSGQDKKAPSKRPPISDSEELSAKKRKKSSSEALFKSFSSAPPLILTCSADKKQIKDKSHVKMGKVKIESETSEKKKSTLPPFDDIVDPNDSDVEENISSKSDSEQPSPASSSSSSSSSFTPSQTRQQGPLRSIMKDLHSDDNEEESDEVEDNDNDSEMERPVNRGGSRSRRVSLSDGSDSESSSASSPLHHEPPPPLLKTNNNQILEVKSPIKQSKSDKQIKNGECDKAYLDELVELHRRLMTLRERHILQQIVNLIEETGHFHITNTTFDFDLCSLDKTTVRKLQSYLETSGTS

B1: MBP-ENL (domain or fragment)
chain: YTDELVELHRRLMALRERNVLQQIVNLIEETGHFNVTNTTFDFDLFSLDETTVRKLQSCLE
Take B1: the “fold tighter binding to MBP-ENL than to MBP-AF9” value in the test with BCOR (aa 1176–1225)-FITC worked out at 9 fold. Moreover, the Kd in test [1] was 0.112 ± 0.013 µM. As to AQGGRPSLIARIPVARILGDPEEE [unlabeled CBX8 WT peptide], 1.88 ± 0.202 µM corresponded to half-maximal inhibition in the test with MBP-AF9 (IC50).
